B1: Syntenin-2 (Homo sapiens), Q9H190 (parent)
chain: MSSLYPSLEDLKVDQAIQAQVRASPKMPALPVQATAISPPPVLYPNLAELENYMGLSLSSQEVQESLLQIPEGDSTAVSGPGPGQMVAPVTGYSLGVRRAEIKPGVREIHLCKDERGKTGLRLRKVDQGLFVQLVQANTPASLVGLRFGDQLLQIDGRDCAGWSSHKAHQVVKKASGDKIVVVVRDRPFQRTVTMHKDSMGHVGFVIKKGKIVSLVKGSSAARNGLLTNHYVCEVDGQNVIGLKDKKIMEILATAGNVVTLTIIPSVIYEHMVKKLPPVLLHHTMDHSIPDA
B2: Keratin, type I cuticular Ha8 (Homo sapiens), O76015 (parent)
chain: MTSSYSSSSCPLGCTMAPGARNVSVSPIDIGCQPGAEANIAPMCLLANVAHANRVRVGSTPLGRPSLCLPPTCHTACPLPGTCHIPGNIGICGAYGENTLNGHEKETMQFLNDRLANYLEKVRQLEQENAELEATLLERSKCHESTVCPDYQSYFHTIEELQQKILCSKAENARLIVQIDNAKLAADDFRIKLESERSLRQLVEADKCGTQKLLDDATLAKADLEAQQESLKEEQLSLKSNHEQEVKILRSQLGEKLRIELDIEPTIDLNRVLGEMRAQYEAMLETNRQDVEQWFQAQSEGISLQDMSCSEELQCCQSEILELRCTVNALEVERQAQHTLKDCLQNSLCEAEDRFGTELAQMQSLISNVEEQLSEIRADLERQNQEYQVLLDVKTRLENEIATYRNLLESEDCKLPCNPCSTSPSCVTAPCAPRPSCGPCTTCGPTCGASTTGSRF

Variants of: B1
Settings: with zch10_human ZCCHC10, Q8TBK6
zch10_human ZCCHC10, Q8TBK6, sequence (Q8TBK6 whole entry): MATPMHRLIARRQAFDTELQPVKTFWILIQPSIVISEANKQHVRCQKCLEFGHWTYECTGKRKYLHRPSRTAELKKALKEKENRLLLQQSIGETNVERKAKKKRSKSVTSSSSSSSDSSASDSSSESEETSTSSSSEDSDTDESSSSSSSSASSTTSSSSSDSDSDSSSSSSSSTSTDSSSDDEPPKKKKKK

Row | Variant | effect of a mutation on the interaction
1 | MSSLYPSLEDLKVDQAIQAQVRASPKMPALPVQATAISPPPVLYPNLAELENYMGLSLSSQEVQESLLQIPEGDSTAVSGPGPGQMVAPVTGYSLGVRRAEIKPGVREIHLCKDERGKTGLRLRKVDQGLFVQLVQANTPASLVGLRFGDQLLQIDGRDCAGWSSHKAHQVVKKASGDKIVVVVRDRPFQRTVTMHKDSMGHVGFVIKKGKIVSLVKGSSAARNRLLTNHYVCEVDGQNVIGLKDKKIMEILATAGNVVTLTIIPSVIYEHMVKKLPPVLLHHTMDHSIPDA [G225R] | disrupting interaction strength
2 | MSSLYPSLEDLKVDQAIQAQVRASPKMPALPVQATAISPPPVLYPNLAELENYMGLSLSSQEVQESLLQIPEGDSTAVSGPGPGQMVAPVTGYSLGVRRAEIKPGVREIHLCKDERGKTGLRLRKVDQGLFVQLVQANTPASLVGLRFGDQLLQIDGRDCAGWSSHKAHQVVKKASGDKIVVVVRDRPFQRTVTMHKDSMGHVGFVIKKGKIVSLVKGSSAARNGLLTNHYVCEVDGQNVIRLKDKKIMEILATAGNVVTLTIIPSVIYEHMVKKLPPVLLHHTMDHSIPDA [G242R] | disrupting interaction strength

Variants of: B1
Settings: with t23o_human TDO2, P48775
t23o_human TDO2, P48775, sequence (P48775 whole entry, looked up): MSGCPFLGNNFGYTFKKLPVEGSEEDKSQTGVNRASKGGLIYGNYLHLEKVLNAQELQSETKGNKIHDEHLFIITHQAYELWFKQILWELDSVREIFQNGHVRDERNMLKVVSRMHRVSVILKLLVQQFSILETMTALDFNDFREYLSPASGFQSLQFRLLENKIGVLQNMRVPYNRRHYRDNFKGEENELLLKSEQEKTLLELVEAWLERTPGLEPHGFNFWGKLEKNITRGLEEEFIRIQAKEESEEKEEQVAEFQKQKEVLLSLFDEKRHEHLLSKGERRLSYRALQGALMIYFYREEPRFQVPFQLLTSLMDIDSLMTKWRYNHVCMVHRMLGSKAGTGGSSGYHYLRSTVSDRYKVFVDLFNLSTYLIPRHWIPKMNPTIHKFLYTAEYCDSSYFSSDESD

Row | Variant | effect of a mutation on the interaction
3 | MSSLYPSLEDLKVDQAIQAQVRASPKMPALPVQATAISPPPVLYPNLAELENYMGLSLSSQEVQESLLQIPEGDSTAVSGPGPGQMVAPVTGYSLGVRRAEIKPGVREIHLCKDERGKTGLRLRKVDQGLFVQLVQANTPASLVGLRFGDQLLQIDGRDCAGWSSHKAHQVVKKASGDKIVVVVRDRPFQRTVTMHKDSMGHVGFVIKKGKIVSLVKGSSAARNRLLTNHYVCEVDGQNVIGLKDKKIMEILATAGNVVTLTIIPSVIYEHMVKKLPPVLLHHTMDHSIPDA [G225R] | disrupting interaction strength
4 | MSSLYPSLEDLKVDQAIQAQVRASPKMPALPVQATAISPPPVLYPNLAELENYMGLSLSSQEVQESLLQIPEGDSTAVSGPGPGQMVAPVTGYSLGVRRAEIKPGVREIHLCKDERGKTGLRLRKVDQGLFVQLVQANTPASLVGLRFGDQLLQIDGRDCAGWSSHKAHQVVKKASGDKIVVVVRDRPFQRTVTMHKDSMGHVGFVIKKGKIVSLVKGSSAARNGLLTNHYVCEVDGQNVIRLKDKKIMEILATAGNVVTLTIIPSVIYEHMVKKLPPVLLHHTMDHSIPDA [G242R] | disrupting interaction strength

Variants of: B1
Settings: with lyar_human LYAR

Row | Variant | effect of a mutation on the interaction
5 | MSSLYPSLEDLKVDQAIQAQVRASPKMPALPVQATAISPPPVLYPNLAELENYMGLSLSSQEVQESLLQIPEGDSTAVSGPGPGQMVAPVTGYSLGVRRAEIKPGVREIHLCKDERGKTGLRLRKVDQGLFVQLVQANTPASLVGLRFGDQLLQIDGRDCAGWSSHKAHQVVKKASGDKIVVVVRDRPFQRTVTMHKDSMGHVGFVIKKGKIVSLVKGSSAARNRLLTNHYVCEVDGQNVIGLKDKKIMEILATAGNVVTLTIIPSVIYEHMVKKLPPVLLHHTMDHSIPDA [G225R] | disrupting interaction strength
6 | MSSLYPSLEDLKVDQAIQAQVRASPKMPALPVQATAISPPPVLYPNLAELENYMGLSLSSQEVQESLLQIPEGDSTAVSGPGPGQMVAPVTGYSLGVRRAEIKPGVREIHLCKDERGKTGLRLRKVDQGLFVQLVQANTPASLVGLRFGDQLLQIDGRDCAGWSSHKAHQVVKKASGDKIVVVVRDRPFQRTVTMHKDSMGHVGFVIKKGKIVSLVKGSSAARNGLLTNHYVCEVDGQNVIRLKDKKIMEILATAGNVVTLTIIPSVIYEHMVKKLPPVLLHHTMDHSIPDA [G242R] | disrupting interaction strength

Variants of: B1
Settings: with ytdc1_human YTHDC1, Q96MU7

Row | Variant | effect of a mutation on the interaction
7 | MSSLYPSLEDLKVDQAIQAQVRASPKMPALPVQATAISPPPVLYPNLAELENYMGLSLSSQEVQESLLQIPEGDSTAVSGPGPGQMVAPVTGYSLGVRRAEIKPGVREIHLCKDERGKTGLRLRKVDQGLFVQLVQANTPASLVGLRFGDQLLQIDGRDCAGWSSHKAHQVVKKASGDKIVVVVRDRPFQRTVTMHKDSMGHVGFVIKKGKIVSLVKGSSAARNRLLTNHYVCEVDGQNVIGLKDKKIMEILATAGNVVTLTIIPSVIYEHMVKKLPPVLLHHTMDHSIPDA [G225R] | disrupting interaction strength
8 | MSSLYPSLEDLKVDQAIQAQVRASPKMPALPVQATAISPPPVLYPNLAELENYMGLSLSSQEVQESLLQIPEGDSTAVSGPGPGQMVAPVTGYSLGVRRAEIKPGVREIHLCKDERGKTGLRLRKVDQGLFVQLVQANTPASLVGLRFGDQLLQIDGRDCAGWSSHKAHQVVKKASGDKIVVVVRDRPFQRTVTMHKDSMGHVGFVIKKGKIVSLVKGSSAARNGLLTNHYVCEVDGQNVIRLKDKKIMEILATAGNVVTLTIIPSVIYEHMVKKLPPVLLHHTMDHSIPDA [G242R] | disrupting interaction strength

Variants of: B1
Settings: with FAM133A

Row | Variant | effect of a mutation on the interaction
9 | MSSLYPSLEDLKVDQAIQAQVRASPKMPALPVQATAISPPPVLYPNLAELENYMGLSLSSQEVQESLLQIPEGDSTAVSGPGPGQMVAPVTGYSLGVRRAEIKPGVREIHLCKDERGKTGLRLRKVDQGLFVQLVQANTPASLVGLRFGDQLLQIDGRDCAGWSSHKAHQVVKKASGDKIVVVVRDRPFQRTVTMHKDSMGHVGFVIKKGKIVSLVKGSSAARNRLLTNHYVCEVDGQNVIGLKDKKIMEILATAGNVVTLTIIPSVIYEHMVKKLPPVLLHHTMDHSIPDA [G225R] | disrupting interaction strength
10 | MSSLYPSLEDLKVDQAIQAQVRASPKMPALPVQATAISPPPVLYPNLAELENYMGLSLSSQEVQESLLQIPEGDSTAVSGPGPGQMVAPVTGYSLGVRRAEIKPGVREIHLCKDERGKTGLRLRKVDQGLFVQLVQANTPASLVGLRFGDQLLQIDGRDCAGWSSHKAHQVVKKASGDKIVVVVRDRPFQRTVTMHKDSMGHVGFVIKKGKIVSLVKGSSAARNGLLTNHYVCEVDGQNVIRLKDKKIMEILATAGNVVTLTIIPSVIYEHMVKKLPPVLLHHTMDHSIPDA [G242R] | disrupting interaction strength

Variants of: B2
Settings: with k2c4_human KRT4, P19013
k2c4_human KRT4, P19013, sequence (P19013 whole entry): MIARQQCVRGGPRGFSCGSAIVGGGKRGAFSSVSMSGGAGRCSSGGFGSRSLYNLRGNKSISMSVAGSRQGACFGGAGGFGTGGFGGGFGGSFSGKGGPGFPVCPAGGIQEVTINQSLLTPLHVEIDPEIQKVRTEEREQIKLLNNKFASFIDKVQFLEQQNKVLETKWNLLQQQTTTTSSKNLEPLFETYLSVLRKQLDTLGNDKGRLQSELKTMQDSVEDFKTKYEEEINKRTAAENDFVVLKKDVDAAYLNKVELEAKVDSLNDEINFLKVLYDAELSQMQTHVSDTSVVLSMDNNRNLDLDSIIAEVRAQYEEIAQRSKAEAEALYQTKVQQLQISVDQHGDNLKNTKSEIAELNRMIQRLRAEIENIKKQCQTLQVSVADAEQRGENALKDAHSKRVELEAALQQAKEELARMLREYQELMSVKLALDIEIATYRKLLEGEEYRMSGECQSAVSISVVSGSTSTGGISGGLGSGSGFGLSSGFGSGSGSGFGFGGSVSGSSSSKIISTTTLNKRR

Row | Variant | effect of a mutation on the interaction
11 | MTSSYSSSSCPLGCTMAPGARNVSVSPIDIGCQPGAEANIAPMCLLANVAHANRVRVGSTPLGRPSLCLPPTCHTACPLPGTCHIPGNIGICGAYGENTLNGHEKETMQFLNDRLANYLEKVRQLEQENAELEATLLERSKCHESTVCPDYQSYFHTIEELQQKILCSKAENARLIVQIDNAKLAADDFRIKLESERSLRQLVESDKCGTQKLLDDATLAKADLEAQQESLKEEQLSLKSNHEQEVKILRSQLGEKLRIELDIEPTIDLNRVLGEMRAQYEAMLETNRQDVEQWFQAQSEGISLQDMSCSEELQCCQSEILELRCTVNALEVERQAQHTLKDCLQNSLCEAEDRFGTELAQMQSLISNVEEQLSEIRADLERQNQEYQVLLDVKTRLENEIATYRNLLESEDCKLPCNPCSTSPSCVTAPCAPRPSCGPCTTCGPTCGASTTGSRF [A205S] | with no effect

Variants of: B2
Settings: with k2c8_human KRT8, P05787
k2c8_human KRT8, P05787, sequence (P05787 whole entry): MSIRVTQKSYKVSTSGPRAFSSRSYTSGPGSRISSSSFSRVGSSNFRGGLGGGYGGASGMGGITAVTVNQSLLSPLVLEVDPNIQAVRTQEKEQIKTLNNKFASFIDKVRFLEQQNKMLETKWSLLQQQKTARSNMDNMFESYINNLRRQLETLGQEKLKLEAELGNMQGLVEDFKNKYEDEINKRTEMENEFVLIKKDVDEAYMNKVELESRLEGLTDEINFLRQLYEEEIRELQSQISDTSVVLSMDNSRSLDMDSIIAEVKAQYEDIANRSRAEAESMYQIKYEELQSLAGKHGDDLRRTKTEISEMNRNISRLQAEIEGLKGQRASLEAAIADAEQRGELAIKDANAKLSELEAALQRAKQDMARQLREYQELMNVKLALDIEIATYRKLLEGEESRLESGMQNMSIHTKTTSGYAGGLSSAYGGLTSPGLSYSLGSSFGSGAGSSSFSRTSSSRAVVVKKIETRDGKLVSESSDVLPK

Row | Variant | effect of a mutation on the interaction
12 | MTSSYSSSSCPLGCTMAPGARNVSVSPIDIGCQPGAEANIAPMCLLANVAHANRVRVGSTPLGRPSLCLPPTCHTACPLPGTCHIPGNIGICGAYGENTLNGHEKETMQFLNDRLANYLEKVRQLEQENAELEATLLERSKCHESTVCPDYQSYFHTIEELQQKILCSKAENARLIVQIDNAKLAADDFRIKLESERSLRQLVESDKCGTQKLLDDATLAKADLEAQQESLKEEQLSLKSNHEQEVKILRSQLGEKLRIELDIEPTIDLNRVLGEMRAQYEAMLETNRQDVEQWFQAQSEGISLQDMSCSEELQCCQSEILELRCTVNALEVERQAQHTLKDCLQNSLCEAEDRFGTELAQMQSLISNVEEQLSEIRADLERQNQEYQVLLDVKTRLENEIATYRNLLESEDCKLPCNPCSTSPSCVTAPCAPRPSCGPCTTCGPTCGASTTGSRF [A205S] | with no effect

Variants of: B2
Settings: with KRT6A

Row | Variant | effect of a mutation on the interaction
13 | MTSSYSSSSCPLGCTMAPGARNVSVSPIDIGCQPGAEANIAPMCLLANVAHANRVRVGSTPLGRPSLCLPPTCHTACPLPGTCHIPGNIGICGAYGENTLNGHEKETMQFLNDRLANYLEKVRQLEQENAELEATLLERSKCHESTVCPDYQSYFHTIEELQQKILCSKAENARLIVQIDNAKLAADDFRIKLESERSLRQLVESDKCGTQKLLDDATLAKADLEAQQESLKEEQLSLKSNHEQEVKILRSQLGEKLRIELDIEPTIDLNRVLGEMRAQYEAMLETNRQDVEQWFQAQSEGISLQDMSCSEELQCCQSEILELRCTVNALEVERQAQHTLKDCLQNSLCEAEDRFGTELAQMQSLISNVEEQLSEIRADLERQNQEYQVLLDVKTRLENEIATYRNLLESEDCKLPCNPCSTSPSCVTAPCAPRPSCGPCTTCGPTCGASTTGSRF [A205S] | with no effect

Variants of: B2
Settings: with k22e_human KRT2, P35908
k22e_human KRT2, P35908, sequence (P35908 whole entry): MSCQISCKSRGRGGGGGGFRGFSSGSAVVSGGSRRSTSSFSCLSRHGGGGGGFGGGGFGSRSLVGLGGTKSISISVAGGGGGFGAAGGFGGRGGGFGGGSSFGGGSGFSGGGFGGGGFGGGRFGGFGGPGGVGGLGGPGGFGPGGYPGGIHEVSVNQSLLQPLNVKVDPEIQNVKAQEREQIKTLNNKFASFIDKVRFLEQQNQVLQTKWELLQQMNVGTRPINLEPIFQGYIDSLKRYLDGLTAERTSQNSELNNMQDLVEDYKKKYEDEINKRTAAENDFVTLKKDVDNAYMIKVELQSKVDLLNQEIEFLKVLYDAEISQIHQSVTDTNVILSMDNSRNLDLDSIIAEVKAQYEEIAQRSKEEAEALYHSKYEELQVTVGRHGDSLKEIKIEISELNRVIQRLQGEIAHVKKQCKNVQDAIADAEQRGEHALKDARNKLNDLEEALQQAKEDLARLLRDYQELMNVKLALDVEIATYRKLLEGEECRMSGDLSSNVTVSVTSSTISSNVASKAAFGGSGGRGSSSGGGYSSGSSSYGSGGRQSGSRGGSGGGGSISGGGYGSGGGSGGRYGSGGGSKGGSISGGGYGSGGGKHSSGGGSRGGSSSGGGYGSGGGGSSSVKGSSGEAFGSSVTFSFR

Row | Variant | effect of a mutation on the interaction
14 | MTSSYSSSSCPLGCTMAPGARNVSVSPIDIGCQPGAEANIAPMCLLANVAHANRVRVGSTPLGRPSLCLPPTCHTACPLPGTCHIPGNIGICGAYGENTLNGHEKETMQFLNDRLANYLEKVRQLEQENAELEATLLERSKCHESTVCPDYQSYFHTIEELQQKILCSKAENARLIVQIDNAKLAADDFRIKLESERSLRQLVESDKCGTQKLLDDATLAKADLEAQQESLKEEQLSLKSNHEQEVKILRSQLGEKLRIELDIEPTIDLNRVLGEMRAQYEAMLETNRQDVEQWFQAQSEGISLQDMSCSEELQCCQSEILELRCTVNALEVERQAQHTLKDCLQNSLCEAEDRFGTELAQMQSLISNVEEQLSEIRADLERQNQEYQVLLDVKTRLENEIATYRNLLESEDCKLPCNPCSTSPSCVTAPCAPRPSCGPCTTCGPTCGASTTGSRF [A205S] | with no effect
